Molecular target: Truncated TGF-β type III receptor encoded by partial rat cDNA clone R3-OF (rat) (UniProt P26342)
Test: total 125I-TGF-β binding per glass slide of COS cells transfected with the cDNA clone (calculated, data not shown)

Sequence of Truncated TGF-β type III receptor encoded by partial rat cDNA clone R3-OF (rat) (P26342 24-818 L164V limits assumed): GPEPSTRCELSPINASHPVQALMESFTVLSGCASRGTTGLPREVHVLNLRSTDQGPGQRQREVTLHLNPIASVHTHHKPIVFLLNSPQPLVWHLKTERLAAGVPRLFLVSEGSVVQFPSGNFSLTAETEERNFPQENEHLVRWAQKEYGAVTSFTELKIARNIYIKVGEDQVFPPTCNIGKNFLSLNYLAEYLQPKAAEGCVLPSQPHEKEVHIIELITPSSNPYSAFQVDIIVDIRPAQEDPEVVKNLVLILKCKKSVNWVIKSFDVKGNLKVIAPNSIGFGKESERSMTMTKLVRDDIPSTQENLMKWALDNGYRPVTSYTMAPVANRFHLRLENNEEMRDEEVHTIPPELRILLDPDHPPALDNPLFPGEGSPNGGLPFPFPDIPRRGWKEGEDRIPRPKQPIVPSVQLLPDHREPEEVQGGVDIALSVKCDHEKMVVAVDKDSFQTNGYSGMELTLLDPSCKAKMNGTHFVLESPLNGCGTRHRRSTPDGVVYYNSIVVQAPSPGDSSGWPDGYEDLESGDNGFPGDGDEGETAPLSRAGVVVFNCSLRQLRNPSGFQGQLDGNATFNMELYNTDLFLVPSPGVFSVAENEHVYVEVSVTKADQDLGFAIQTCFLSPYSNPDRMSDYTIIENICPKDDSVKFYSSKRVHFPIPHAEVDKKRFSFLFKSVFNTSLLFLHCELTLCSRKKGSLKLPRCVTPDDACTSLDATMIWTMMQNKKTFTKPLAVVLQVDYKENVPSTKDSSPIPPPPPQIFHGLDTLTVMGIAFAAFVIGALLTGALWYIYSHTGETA
Sequence of Recombinant human TGF-β1 (P01137 279-390 limits assumed): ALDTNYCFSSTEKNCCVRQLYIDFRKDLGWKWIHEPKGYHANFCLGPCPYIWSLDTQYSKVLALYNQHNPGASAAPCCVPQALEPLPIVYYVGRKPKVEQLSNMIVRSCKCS

fold total 125I-TGF-β binding over mock transfectants: 2 fold
Substance: Recombinant human TGF-β1 (from UniProt P01137 279-390) (ligand)

Source: patent publication US20080234216A1
